B1: Ver. 11.1: thermostable 1,5-AG dehydrogenase; SEQ ID NO: 1 having an arginine residue in place of proline at position 156 (protein)
chain: MEFAGQPDIVIIGTGIGGASIAAGLSASGADILILERGESLPDRPENRDQHAIFQRGFFRPKEFWYGTDGTPFNPGNYYYVGGNSKFYGAVLMRYRREDFEELAHLEGVSPAWPFAYDELEPWYCKAEELFQVRGELGDDPTEPYHSKPYSYPAIRDESPIADMRARLKKAGLHPASLPLGVDIERWLAKAKTPWDAHPNSDDGKMDAETCPLALALKHPNVGLETSARVTKLEAGPDGKTIVAVHYVKNGEALVLRPKLVILSAGAVQSAALLLRSGLANRSDQVGRNFMNHNASAVIGFDPRYRNDSVYQKTFGFNDYYLSDGAGGPPLGNVQLLGRVSGAILKSYMRQVPEWFLNRIARHTIDFYAMSEDLPSPESRVSVDGDRIILHWVRSNWKAHLMLVDKLKSALRAAGFPVVLSRAFDRRTPSHQCGTVRIGDNPATAPLDPYCRAYDHPNLYVVDASFLPTSAAANPALTIAAQALRVADHLNREVLA
modifications: Protein expressed by mutated 1,5-anhydroglucitol dehydrogenase gene
B2: Ver. 11.0: thermostable 1,5-AG dehydrogenase; SEQ ID NO: 1 having arginine at position 156 and valine at position 473 (protein)
chain: MEFAGQPDIVIIGTGIGGASIAAGLSASGADILILERGESLPDRPENRDQHAIFQRGFFRPKEFWYGTDGTPFNPGNYYYVGGNSKFYGAVLMRYRREDFEELAHLEGVSPAWPFAYDELEPWYCKAEELFQVRGELGDDPTEPYHSKPYSYPAIRDESPIADMRARLKKAGLHPASLPLGVDIERWLAKAKTPWDAHPNSDDGKMDAETCPLALALKHPNVGLETSARVTKLEAGPDGKTIVAVHYVKNGEALVLRPKLVILSAGAVQSAALLLRSGLANRSDQVGRNFMNHNASAVIGFDPRYRNDSVYQKTFGFNDYYLSDGAGGPPLGNVQLLGRVSGAILKSYMRQVPEWFLNRIARHTIDFYAMSEDLPSPESRVSVDGDRIILHWVRSNWKAHLMLVDKLKSALRAAGFPVVLSRAFDRRTPSHQCGTVRIGDNPATAPLDPYCRAYDHPNLYVVDASFLPTSAAVNPALTIAAQALRVADHLNREVLA
modifications: Protein expressed by mutated 1,5-anhydroglucitol dehydrogenase gene
B3: Ver. 12.0: thermostable 1,5-AG dehydrogenase comprising the amino acid sequence represented by SEQ ID NO: 1 (protein)
chain: MEFAGQPDIVIIGTGIGGASIAAGLSASGADILILERGESLPDRPENRDQHAIFQRGFFRPKEFWYGTDGTPFNPGNYYYVGGNSKFYGAVLMRYRREDFEELAHLEGVSPAWPFAYDELEPWYCKAEELFQVRGELGDDPTEPYHSKPYSYPAIPDESPIADMRARLKKAGLHPASLPLGVDIERWLAKAKTPWDAHPNSDDGKMDAETCPLALALKHPNVGLETSARVTKLEAGPDGKTIVAVHYVKNGEALVLRPKLVILSAGAVQSAALLLRSGLANRSDQVGRNFMNHNASAVIGFDPRYRNDSVYQKTFGFNDYYLSDGAGGPPLGNVQLLGRVSGAILKSYMRQVPEWFLNRIARHTIDFYAMSEDLPSPESRVSVDGDRIILHWVRSNWKAHLMLVDKLKSALRAAGFPVVLSRAFDRRTPSHQCGTVRIGDNPATAPLDPYCRAYDHPNLYVVDASFLPTSAAANPALTIAAQALRVADHLNREVLA
modifications: Protein expressed by mutated 1,5-anhydroglucitol dehydrogenase gene
B4: Ver. 0: recombinant parent strain (Pseudomonas sp. NK-85001)-derived 1,5-AG dehydrogenase, SEQ ID NO: 4, no thermostability (protein)
chain: MEFGGQPDIVIIGSGIGGASIAAGLSASGADILILEAGESLPDRPENRDPHAIFQRGFFRPKEFWYETDGTPFNPGNYYNVGGNSKFYGAVLVRYRREDFEELAHLEGVSPAWPFAYDELEPWYCKAEELFQVRGELGDDPTEPYHSKPYSYPAIRDESPIADLRARLKKAGLHPASLPLGVDIERWLAKAKTPWDAHPNSNDGKMDAETCPLALALKHPNVGLETSARVTKLETGPDGKTIVAVHYVKNGEALVLRPKLVILSAGAVQSAALLLRSGLANRSDQVGRNFMNHNASAVIGFDPRYRNDSVYQKTFGFNDYYLSDGAGGPPLGNVQLLGRVSGAILKSNMRQVPEWFLNRIAGHTIDFYAMSEDLPSPESRVSVDGDRIILHWVRSNWKAHLMLVDKLKSALRAAGFPVVLSRAFDRRTPSHQCGTVRIGDNPATAPLDPYCRAYDHPNLYVVDASFLPTSAAVNPALTIAAQALRVADHLNREVLA
modifications: Pseudomonas sp. NK-85001
B5: Ver. 3.2: thermostable 1,5-AG dehydrogenase, protein 17); net vs SEQ ID NO: 4: A37T, P50Q, L164M, G362R (protein)
chain: MEFGGQPDIVIIGSGIGGASIAAGLSASGADILILETGESLPDRPENRDQHAIFQRGFFRPKEFWYETDGTPFNPGNYYNVGGNSKFYGAVLVRYRREDFEELAHLEGVSPAWPFAYDELEPWYCKAEELFQVRGELGDDPTEPYHSKPYSYPAIRDESPIADMRARLKKAGLHPASLPLGVDIERWLAKAKTPWDAHPNSNDGKMDAETCPLALALKHPNVGLETSARVTKLETGPDGKTIVAVHYVKNGEALVLRPKLVILSAGAVQSAALLLRSGLANRSDQVGRNFMNHNASAVIGFDPRYRNDSVYQKTFGFNDYYLSDGAGGPPLGNVQLLGRVSGAILKSNMRQVPEWFLNRIARHTIDFYAMSEDLPSPESRVSVDGDRIILHWVRSNWKAHLMLVDKLKSALRAAGFPVVLSRAFDRRTPSHQCGTVRIGDNPATAPLDPYCRAYDHPNLYVVDASFLPTSAAVNPALTIAAQALRVADHLNREVLA
modifications: Pseudomonas sp. NK-85001
B6: Ver. 7.1: thermostable 1,5-AG dehydrogenase, SEQ ID NO: 23; Ver. 7.0 plus G4A (protein)
chain: MEFAGQPDIVIIGTGIGGASIAAGLSASGADILILETGESLPDRPENRDQHAIFQRGFFRPKEFWYETDGTPFNPGNYYNVGGNSKFYGAVLMRYRREDFEELAHLEGVSPAWPFAYDELEPWYCKAEELFQVRGELGDDPTEPYHSKPYSYPAIRDESPIADMRARLKKAGLHPASLPLGVDIERWLAKAKTPWDAHPNSNDGKMDAETCPLALALKHPNVGLETSARVTKLEAGPDGKTIVAVHYVKNGEALVLRPKLVILSAGAVQSAALLLRSGLANRSDQVGRNFMNHNASAVIGFDPRYRNDSVYQKTFGFNDYYLSDGAGGPPLGNVQLLGRVSGAILKSYMRQVPEWFLNRIARHTIDFYAMSEDLPSPESRVSVDGDRIILHWVRSNWKAHLMLVDKLKSALRAAGFPVVLSRAFDRRTPSHQCGTVRIGDNPATAPLDPYCRAYDHPNLYVVDASFLPTSAAVNPALTIAAQALRVADHLNREVLA
modifications: Mutated 1,5-anhydroglucitol dehydrogenase gene
notes: Ver; 7.0 plus G4A

Assays:
[1] = Stability of thermostable 1,5-AG dehydrogenase at heat treatment temperature (rate of residual activity); assay type: physicochemical; settings: for Rate of residual activity after 10-minute treatment at 60° C. / Rate of residual activity after 10-minute treatment at 45° C. / Rate of residual activity after 10-minute treatment at 50° C. / Rate of residual activity after 10-minute treatment at 55° C.: crude enzyme solution, 10 minutes; for Rate of residual activity after 10-minute treatment at 60° C.: water bath 60° C.; for Rate of residual activity after 10-minute treatment at 45° C.: water bath 45° C.; for Rate of residual activity after 10-minute treatment at 50° C.: water bath 50° C.; for Rate of residual activity after 10-minute treatment at 55° C.: water bath 55° C.
Description: (§1) The E. coli JM109 containing the gene encoding each thermostable 1,5-AG dehydrogenase obtained in the paragraphs to [4] of EXAMPLE 2 was transplanted to 10 mL of an LB liquid medium containing 50 μg/mL ampicillin and 0.1 mM IPTG and shake-cultured at 30° C. for 16 hours. 10 mL of the shake-culture solution was centrifuged at 10000 rpm for 5 minutes. The culture supernatant was removed, and the pellet was then washed twice with a 0.85% aqueous NaCl solution. These microbial cells were suspended in 1 mL of a 50 mM sodium phosphate buffer (pH 7.5) containing 0.25% Triton X-100. The microbial cells were disrupted using a bead impact-type cell disrupter MINI-BEAD BEATER (30 seconds×4, manufactured by Central Scientific Commerce, Inc.) while cooled in ice. After centrifugation at 15000 rpm for 10 minutes, the supernatant was used as a crude enzyme solution. When the crude enzyme solution was heat-treated, the treatment was performed for 10 minutes in a water bath of 45° C., 50° C., 55° C. or 60° C.
(§2) The enzymatic activity of the 1,5-AG dehydrogenase was calculated by measurement by the same approach as that described in the paragraph (J) of EXAMPLE 1.
(§3) A specific activity that represents the enzymatic activity of the 1,5-AG dehydrogenase per mg of the crude enzyme solution was calculated according to the following equation: Specific activity (U/mg)=enzymatic activity (U/mL)/protein concentration of crude enzyme solution (mg/mL). Moreover, the rate of residual activity was calculated according to the following equation: Rate of residual activity (%)=(specific activity of crude enzyme solution after heat treatment/specific activity of crude enzyme solution before heat treatment)×100.

[2] = 1,5-AG dehydrogenase activity determination of crude enzyme solution (L-sorbose, DCIP, 1-m-PMS, decrease in absorbance at 600 nm); assay type: biochemical; settings: L-sorbose as substrate, 37° C.; for Specific activity: crude enzyme solution
Description: The E. coli JM109 strains transformed with the pTrc-PS15DH vectors confirmed in the paragraph (I) to have the insert fragment were inoculated to 3 mL of an LB medium containing 100 μg/mL ampicillin and cultured at 28° C. for 14 hours. Of this culture solution, a 0.2 mL aliquot was inoculated to 10 mL of an LB medium (containing 100 μg/mL ampicillin). Approximately 3 hours later, the rise of OD600 of the culture solution to 0.4 to 0.7 was confirmed, and 1,5-AG dehydrogenase expression in E. coli was then induced by the addition of 0.1 M IPTG (final concentration: 0.1 mM) to the medium. This culture solution was further cultured overnight at 28° C. and centrifuged at 10000×g for 5 minutes to precipitate cells. The supernatant was removed, and the pellet was then washed twice with a 0.85% aqueous NaCl solution. Cells were precipitated by centrifugation. Then, the microbial cells were suspended in 1 mL of a 50 mM sodium phosphate buffer, pH 7.5. Triton X-100 was added thereto at a concentration of 0.25%, and the microbial cells were disrupted using a bead impact-type cell disrupter MINI-BEAD BEATER (30 seconds×4, manufactured by Central Scientific Commerce, Inc.) while cooled in ice. After centrifugation at 20000×g for 10 minutes, the supernatant was examined as a crude enzyme solution for its 1,5-AG dehydrogenase activity. The composition of the reaction solution is as described below. Since the 1,5-AG dehydrogenase also reacts with L-sorbose as its substrate, L-sorbose was used for convenience instead of 1,5-AG in the enzymatic activity determination.
Composition of Reaction Solution:
The components other than the crude enzyme solution are mixed and kept at 37° C. for 10 minutes. Then, the crude enzyme solution is added to the reaction solution to initiate reaction. Decrease in absorbance at 600 nm for 1 minute with the temperature kept at 37° C. is determined.
The enzymatic activity can be determined according to the following equation: Enzymatic activity (U/mL)=(Δ600/min×0.6 (mL)×dilution ratio of crude enzyme solution)/(16.3×0.01 (mL)).
as §1, §2, §3
The 1,5-AG dehydrogenase activity was determined based on the method described in EXAMPLE 1, and its specific activity was determined according to the equation described in EXAMPLE 3.

Molecule	Rate of residual activity after 10-minute treatment at 60° C. [1] [%]	Specific activity [2] [U/mg]	Rate of residual activity after 10-minute treatment at 45° C. [1] [%]	Rate of residual activity after 10-minute treatment at 50° C. [1] [%]	Rate of residual activity after 10-minute treatment at 55° C. [1] [%]	Enzymatic activity of the crude enzyme solution ([2]; E. coli JM109 / pTrc-PS15DH) [U/mL]	Thermostability compared with the version(s) it was prepared from ([1]; Ver. 4.0 vs Ver. 3.2, Ver. 3.2 vs Ver. 3.0 and Ver. 3.1)
B1	73	0.8	–	–	–	–	–
B2	–	3.4	97.0	97.0	81.0	–	–
B3	76	1.2	–	–	–	–	–
B4	–	1.2	3.0	–	–	4.4	–
B5	–	2.0	68.0	14.0	–	–	improved thermostability
B6	–	2.8	89.0	61.0	10.0	–	–
